Data set [1] has as its target transmembrane domain of p7b (p7b-TM) (SARS-CoV). Nature of the data set: AUC.
For data set [2] the target is unchanged. The experiment in a line: AUC. This is another data set of the same source.
The target is the same in data set [3]. Nature of the data set: SDS-PAGE.
The data set “AUC” deals with the molecule itself. Nature of the data set: AUC.
The data set “SDS-PAGE” deals with the molecule itself. The experiment in a line: SDS-PAGE.

This note sets out measurements from publication PMC9680129, “SARS-CoV-2 accessory protein 7b forms homotetramers in detergent” (Virology Journal, 2022).

Several values for one entry are separate records, joined by “and”; a condition that tells them apart may be missing. Equal entries are not always repeated.

What is called stoichiometry N is a count of units in the complex or per binding partner. With “transmembrane domain of p7b (p7b-TM) (domain or fragment)”, the stoichiometry N in data set [1] worked out at 4; in data set [2], 2; in data set [3], 2.

B1: SARS-CoV-2 accessory protein 7b (natural protein)
chain: MIELSLIDFYLCFLAFLLFLVLIMLIIFWFSLELQDHNETCHA
notes: also called SARS-2 p7b; SARS-2 7b
On to B1, for which the results for the “stoichiometry N” value in the data set “AUC” and in “SDS-PAGE” were 4 and 2, respectively.

B2: SARS-CoV accessory protein 7b (natural protein)
chain: MNELTLIDFYLCFLAFLLFLVLIMLIIFWFSLEIQDLEEPCTKV
notes: also called SARS p7b; SARS 7b
Regarding B2, the “stoichiometry N” value in the data set “AUC” was 4 and 2.
